Reference: patent publication US12359240B2, “Membrane protease-based methods for detection of bacteria” (Nanyang Technological University, priority 2019, dated 2025)
Where no end group is shown, it is not given here.

Legend:
OmpT and PgtE = experiment: Substrate preference of OmpT versus PgtE, change in PT6 fluorescence with time; type: biochemical, E. coli K-12; Salmonella typhi; settings: FIG. 15
E. coli K12 = experiment: Detection of E. coli in contaminated water with the LL37 peptides and PT6; type: cell-based, Escherichia coli; settings: 10^8 CFU/mL E. coli K12, FIG. 14A
OmpT [1] = target: T1, OmpT (Escherichia coli, UniProt P09169); settings: for rate of reduction in PT6 fluorescence (cleavage by OmpT) relative to the peptide of Examples 1-5: interpreted from the slope
OmpT [2] = target: T1, OmpT
Protocol: This OmpT was obtained by overexpressing the protein in E. coli BL21 as inclusion bodies using a protocol reported earlier [Kramer, R. A. Zandwijken, D. Egmond, M. R. Dekker, N. Eur. J. Biochem. 267, 885-893 (2000)]. Briefly, the inclusion bodies were unfolded and solubilized using 8 M urea and subsequently refolded in the presence of DodMe2NPrSO3, a zwitterionic detergent. The refolded OmpT was purified and stored at 4° C. for further use. […] To this 100 μL reaction mixture, 10 μL of PTAA stock solution (0.1 mg/mL) was added. Fluorescence measurements and absorbance scans were collected as mentioned before. The raw fluorescence (F.) intensity scans are either plotted as is or reported as % fluorescence increase. The following formula was applied to convert fluorescence intensity (a.u.) to % fluorescence increase: […]

OmpT [3] = target: T1, OmpT; remark: listed apart in the source
OmpT [4] = target: T1, OmpT; settings: 20 μM peptide, OmpT 6 hours, FIG. 17
[5] = PT6-peptide fluorescence measurements (no enzyme); settings: FIG. 18
Protocol: Stock solutions of PT6 was prepared in a reaction buffer such that the absorbance at λmax was ˜1.4. All absorbance and fluorescence measurements were carried out on 100 μL samples in a flat bottom 96 well plate using a TECAN Infinite® 200 PRO (Switzerland). Fluorescence scans were collected by exciting the samples at 495 nm, further recording their emission spectrum from 525-750 nm. […] In order to study the effect of cysteine on PT6 fluorescence, different concentrations (150-6.25 μM) of the two peptides (Table 12) were prepared from the stock and mixed with PT6 such that the final concentration of the PT is a 10 time dilution of the stock. The fluorescence intensities were measured as described above.

[6] = PTAA-peptide fluorescence and optical absorption measurements (no enzyme); settings: 550 nm; peptide's highest concentration
Protocol: All PTAA and LL37FRRY mixing were carried out in the reaction buffer. All optical absorption and fluorescence measurements were carried out on 100 μL samples in a flat bottom 96 well plate using a TECAN Infinite® 200 PRO(Switzerland). Optical absorption measurements were collected from 330-650 nm. […] To understand the effect of intact and cleaved fragments on the fluorescence intensity and optical absorption of PTAA, LL37FRRV, frag1LL37FRRV (SEQ ID NO: 47) and frag2LL37FRRV (SEQ ID NO: 48) were added in different ratios (10:0, 8:2, 6:4, 4:6, 2:8, 0:10) while keeping the total peptide concentration at 50 μM. The fluorescence intensity and optical absorption spectra were measured as mentioned before.

T1 sequence (P09169 21-317): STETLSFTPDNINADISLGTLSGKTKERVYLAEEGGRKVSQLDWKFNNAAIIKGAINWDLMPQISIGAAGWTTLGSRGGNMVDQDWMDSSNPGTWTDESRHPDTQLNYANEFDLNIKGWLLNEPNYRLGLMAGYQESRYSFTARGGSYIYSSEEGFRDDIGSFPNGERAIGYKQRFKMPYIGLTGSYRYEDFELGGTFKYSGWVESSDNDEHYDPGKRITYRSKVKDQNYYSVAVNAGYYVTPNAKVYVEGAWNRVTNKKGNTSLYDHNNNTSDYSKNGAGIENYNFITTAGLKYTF

Q: Which “substrate preference of OmpT compared with PgtE” value (OmpT and PgtE) does the source give for “C L L G D F A R R A K E K I G (CLLGDFARRAKEKIG; LL37ARRA)” here?
A: The value was “OmpT exhibits a higher preference”.

Q: With “C L L G D F F R R A K E K I G (CLLGDFFRRAKEKIG; LL37FRRA)” as the substance, how does the “rate of reduction in PT6 fluorescence” value (E. coli K12) read?
A: The value was “faster rate”.

Q: And the “rate of reduction in PT6 fluorescence (cleavage by OmpT) relative to the peptide of Examples 1-5” value (OmpT [1])?
A: The value was “faster rate”.

Q: With “C L L G D F F R R V K E K I G (CLLGDFFRRVKEKIG; LL37FRRV)” as the substance, how does the “increase in PTAA fluorescence intensity when mixed with OmpT-cleaved peptide fragments” value (OmpT [2]; peptide treated with OmpT in detergent micelles) read?
A: Its value is “no more than 20%”.

Q: What about the “times better then original peptide (substrate specific for OmpT)” value (OmpT [3]; SAMDI-MS peptide array, versus original peptide) of the same substance?
A: Its value is 400 times.

Q: For “C L L G D F F R R Y K E K I G (CLLGDFFRRYKEKIG; LL37FRRY)”, which “difference in PTAA fluorescence intensity between intact peptide and peptide digested with OmpT” value (OmpT [4]) is on record?
A: The value was “largest difference”.

Q: What about the “PT6 fluorescence intensity, peptide with versus without terminal cysteine” value [5] of the same substance?
A: The value was “much higher fluorescence intensity”.

Q: What about the “PTAA's fluorescence intensity less than with peptide in the absence of OmpT” value (OmpT [2]; 42 nM OmpT, 2 hours, 50 μM peptide) of the same substance?
A: The value was roughly 175%.

Q: And the “rate of reduction in PT6 fluorescence” value (E. coli K12)?
A: Its value is “faster rate”.

Q: What about the “incubation time with OmpT of the sample showing colour change from bronze to purple” value (OmpT [1]; PT6, normal visible light, FIG. 13B top) of the same substance?
A: Its value is 70 min.

Q: And the “rate of reduction in PT6 fluorescence (cleavage by OmpT) relative to the peptide of Examples 1-5” value (OmpT [1])?
A: The value was “faster rate”.

Q: What about the “overall increase in PTAA's fluorescence intensity upon peptide addition” value [6] of the same substance?
A: The value was roughly 200%.

Q: Which results are given for “C L L G D F Y R R A K E K I G (CLLGDFYRRAKEKIG; LL37YRRA)”?
A: rate of reduction in PT6 fluorescence (E. coli K12): faster rate; rate of reduction in PT6 fluorescence (cleavage by OmpT) relative to the peptide of Examples 1-5 (OmpT [1]): faster rate

Q: Which “cleavage by OmpT of library peptide AcGX1RRX2GC” value (OmpT [3]; tetrapeptide sequence at the cleavage site) does the source give for “FRRV: library peptide of type AcGX1RRX2GC carrying the tetrapeptide sequence FRRV at the cleavage site (Ac-GFRRVGC)” here?
A: The value was “efficiently cleaved”.
